What was measured:
[1] = cited from earlier work
[2] = molecular target: α-CAs found in mammals; conditions: inhibitor not named; cited from earlier work
[3] = system: Arabidopsis; assay: Growth phenotypes of transgenic Arabidopsis; assay type: in vivo
Excerpt: (§1) Previously, reconstitution of a functional inorganic CCM in C3 plants to suppress photorespiration and enhance photosynthesis was proposed. In WO 2012/125737, it was hypothesized that expression of a minimum of three algal CCM proteins would be sufficient to elevate internal plastid CO2 concentrations high enough to suppress photorespiration. These three algal CCM genes included the Chlamydomonas plasma membrane-localized and ATP-dependent bicarbonate transporter, HLA3; the chloroplast envelope localized bicarbonate anion transporter, LCIA; and a chloroplast stromal-localized carbonic anhydrase (HCA-II) to accelerate conversion of bicarbonate into CO2. […] To test this hypothesis, we generated multiple independent transgenic Arabidopsis and Camelina plants expressing each CCM gene as a single gene construct, as well as a stacked 3-gene construct. The expression of each gene was controlled by the light-regulated Cab1 gene promoter.
Finally, we also grew transgenics on ammonium with sucrose which would presumably provide additional ATP via respiration. We hypothesized that growth on nitrate or ammonium with sucrose would provide additional ATP that could potentially drive HLA3 activity.

[4] = system: Camelina; assay: Growth phenotypes and seed recovery of transgenic Camelina; assay type: in vivo
Excerpt: as §1

Molecule | Km [1] [mM] | Ki [2] [nM] | other results
hCAI: human α-carbonic anhydrase isoenzyme I | 4 | 250 | –
hCAXIII: human α-carbonic anhydrase isoenzyme XIII | 13.8 | 16 | –
hCAIV: human α-carbonic anhydrase isoenzyme IV (protein, UniProt P22748 19-284, looked up) Carbonic anhydrase 4: AESHWCYEVQAESSNYPCLVPVKWGGNCQKDRQSPINIVTTKAKVDKKLGRFFFSGYDKKQTWTVQNNGHSVMMLLENKASISGGGLPAPYQAKQLHLHWSDLPYKGSEHSLDGEHFAMEMHIVHEKEKGTSRNVKEAQDPEDEIAVLAFLVEAGTQVNEGFQPLVEALSNIPKPEMSTTMAESSLLDLLPKEEKLRHYFRYLGSLTTPTCDEKVVWTVFREPIQLHREQILAFSQKLYYDKEQTVSMKDNVRPLQQLGQRTVIKS | 21.5 | 74 | –
hCAVB: human α-carbonic anhydrase isoenzyme VB (protein, UniProt Q9Y2D0 34-317, looked up) Carbonic anhydrase 5B, …: CSLYTCTYKTRNRALHPLWESVDLVPGGDRQSPINIRWRDSVYDPGLKPLTISYDPATCLHVWNNGYSFLVEFEDSTDKSVIKGGPLEHNYRLKQFHFHWGAIDAWGSEHTVDSKCFPAELHLVHWNAVRFENFEDAALEENGLAVIGVFLKLGKHHKELQKLVDTLPSIKHKDALVEFGSFDPSCLMPTCPDYWTYSGSLTTPPLSESVTWIIKKQPVEVDHDQLEQFRTLLFTSEGEKEKRMVDNFRPLQPLMNRTVRSSFRHDYVLNVQAKPKPATSQATP | 9.7 | 54 | –
hCAVA: human α-carbonic anhydrase isoenzyme VA (protein, UniProt P35218 39-305, looked up) Carbonic anhydrase 5A, …: CAWQTSNNTLHPLWTVPVSVPGGTRQSPINIQWRDSVYDPQLKPLRVSYEAASCLYIWNTGYLFQVEFDDATEASGISGGPLENHYRLKQFHFHWGAVNEGGSEHTVDGHAYPAELHLVHWNSVKYQNYKEAVVGENGLAVIGVFLKLGAHHQTLQRLVDILPEIKHKDARAAMRPFDPSTLLPTCWDYWTYAGSLTTPPLTESVTWIIQKEPVEVAPSQLSAFRTLLFSALGEEEKMMVNNYRPLQPLMNRKVWASFQATNEGTRS | 10 | 63 | –
hCAVII: human α-carbonic anhydrase isoenzyme VII (protein, UniProt P43166 1-264, looked up) Carbonic anhydrase 7: MTGHHGWGYGQDDGPSHWHKLYPIAQGDRQSPINIISSQAVYSPSLQPLELSYEACMSLSITNNGHSVQVDFNDSDDRTVVTGGPLEGPYRLKQFHFHWGKKHDVGSEHTVDGKSFPSELHLVHWNAKKYSTFGEAASAPDGLAVVGVFLETGDEHPSMNRLTDALYMVRFKGTKAQFSCFNPKCLLPASRHYWTYPGSLTTPPLSESVTWIVLREPICISERQMGKFRSLLFTSEDDERIHMVNNFRPPQPLKGRVVKASFRA | 11.4 | 2.5 | –
HLA3: Chlamydomonas plasma membrane-localized and ATP-dependent bicarbonate transporter, expressed in transgenic plants (protein, listed as Chlamydomonas reinhardtii) MLPGLGVILLVLPMQYYFGYKIVQIKLQNAKHVALRSAIMQEVLPAIKLVKYYAWEQFFENQISKVRREEIRLNFWNCVMKVINVACVFCVPPMTAFVIFTTYEFQRARLVSSVAFTTLSLFNILRFPLVVLPKALRAVSEANASLQRLEAYLLEEVPSGTAAVKTPKNAPPGAVIENGVFHHPSNPNWHLHVPKFEVKPGQVVAVVGRIAAGKSSLVQAILGNMVKEHGSFNVGGRISYVPQNPWLQNLSLRDNVLFGEQFDENKYTDVIESCALTLDLQILSNGDQSKAGIRGVNFSGGQRQRVNLARCAYADADLVLLDNALSAVDHHTAHHIFDKCIKGLFSDKAVVLVTHQIEFMPRCDNVAIMDEGRCLYFGKWNEEAQHLLGKLLPITHLLHAAGSQEAPPAPKKKAEDKAGPQKSQSLQLTLAPTSIGKPTEKPKDVQKLTAYQAALIYTWYGNLFLVGVCFFFFLAAQCSRQISDFWVRWWVNDEYKKFPVKGEQDSAATTFYCLIYLLLVGLFYIFMIFRGATFLWWVLKSSETIRRKALHNVLNAPMGFFLVTPVGDLLLNFTKDQDIMDENLPDAVHFMGIYGLILLATTITVSVTINFFAAFTGALIIMTLIMLSIYLPAATALKKARAVSGGMLVGLVAEVLEGLGVVQAFNKQEYFIEEAARRTNITNSAVFNAEALNLWLAFWCDFIGACLVGVVSAFAVGMAKDLGGATVGLAFSNIIQMLVFYTWVVRFISESISLFNSVEGMAYLADYVPHDGVFYDQRQKDGVAKQIVLPDGNIVPAASKVQVVVDDAALARWPATGNIRFEDVWMQYRLDAPWALKGVTFKINDGEKVGAVGRTGSGKSTTLLALYRMFELGKGRILVDGVDIATLSLKRLRTGLSIIPQEPVMFTGTVRSNLDPFGEFKDDAILWEVLKKVGLEDQAQHAGGLDGQVDGTGGKAWSLGQMQLVCLARAALRAVPILCLDEATAAMDPHTEAIVQQTIKKVFDDRTTITIAHRLDTIIESDKIIVMEQGSLMEYESPSKLLANRDSMFSKLVDKTGPAAAAALRKMAEDFWSTRSAQGRNQ | – | – | growth phenotype relative to WT [3]: reduced growth phenotypes; growth in the presence of ammonium ([3]; ammonium): none of the Arabidopsis HLA3 transgenics (4 independent lines) grew; growth on ammonium with sucrose ([3]; ammonium plus sucrose): rescued; growth on nitrate ([3]; nitrate): survived; growth phenotype / viability relative to WT [4]: no viable seeds were recovered
hCAXV: α-carbonic anhydrase isoenzyme XV (protein, UniProt Q99N23 19-324, looked up) Carbonic anhydrase 15: VDSSGTWCYDSQDPKCGPAHWKELAPACGGPTQSPINIDLRLVQRDYTLKPFIFQGYDSAPQDPWVLENDGHTVLLRVNSCQQNCPAIRGAGLPSPEYRLLQLHFHWGSPGHQGSEHSLDEKHGSMEMHMVHMNTKYQSMEDARSQPDGFAILAVLLVEEDRDNTNFSAIVSGLKNLSSPGVAVNLTSTFALASLLPSALRLLRYYRYSGSLTTPGCEPAVLWTVFENTVPIGHAQVVQFQAVLQTGPPGLHPRPLTSNFRPQQPLGGRRISASPEASVRSSVSTLPCLHLALVGLGVGLRLWQGP | 14.2 | 72 | –
hCAXII: human α-carbonic anhydrase isoenzyme XII (protein, UniProt O43570 25-354, looked up) Carbonic anhydrase 12: APVNGSKWTYFGPDGENSWSKKYPSCGGLLQSPIDLHSDILQYDASLTPLEFQGYNLSANKQFLLTNNGHSVKLNLPSDMHIQGLQSRYSATQLHLHWGNPNDPHGSEHTVSGQHFAAELHIVHYNSDLYPDASTASNKSEGLAVLAVLIEMGSFNPSYDKIFSHLQHVKYKGQEAFVPGFNIEELLPERTAEYYRYRGSLTTPPCNPTVLWTVFRNPVQISQEQLLALETALYCTHMDDPSPREMINNFRQVQKFDERLVYTSFSQVQVCTAAGLSLGIILSLALAGILGICIVVVVSIWLFRRKSIKKGDNKGVIYKPATKMETEAHA | 12 | 5.7 | –
hCAXIV: human α-carbonic anhydrase isoenzyme XIV (protein, UniProt Q9ULX7 16-337, looked up) Carbonic anhydrase 14: ADGGQHWTYEGPHGQDHWPASYPECGNNAQSPIDIQTDSVTFDPDLPALQPHGYDQPGTEPLDLHNNGHTVQLSLPSTLYLGGLPRKYVAAQLHLHWGQKGSPGGSEHQINSEATFAELHIVHYDSDSYDSLSEAAERPQGLAVLGILIEVGETKNIAYEHILSHLHEVRHKDQKTSVPPFNLRELLPKQLGQYFRYNGSLTTPPCYQSVLWTVFYRRSQISMEQLEKLQGTLFSTEEEPSKLLVQNYRALQPLNQRMVFASFIQAGSSYTTGEMLSLGVGILVGCLCLLLAVYFIARKIRKKRLENRKSVVFTSAQATTEA | 7.9 | 41 | –
hCAVI: human α-carbonic anhydrase isoenzyme VI (protein, UniProt P23280 18-308, looked up) Carbonic anhydrase 6: QHVSDWTYSEGALDEAHWPQHYPACGGQRQSPINLQRTKVRYNPSLKGLNMTGYETQAGEFPMVNNGHTVQISLPSTMRMTVADGTVYIAQQMHFHWGGASSEISGSEHTVDGIRHVIEIHIVHYNSKYKSYDIAQDAPDGLAVLAAFVEVKNYPENTYYSNFISHLANIKYPGQRTTLTGLDVQDMLPRNLQHYYTYHGSLTTPPCTENVHWFVLADFVKLSRTQVWKLENSLLDHRNKTIHNDYRRTQPLNHRVVESNFPNQEYTLGSEFQFYLHKIEEILDYLRRALN | 6.9 | 11 | –
hCAIII: human α-carbonic anhydrase isoenzyme III (protein, UniProt P07451 2-260, looked up) Carbonic anhydrase 3: AKEWGYASHNGPDHWHELFPNAKGENQSPVELHTKDIRHDPSLQPWSVSYDGGSAKTILNNGKTCRVVFDDTYDRSMLRGGPLPGPYRLRQFHLHWGSSDDHGSEHTVDGVKYAAELHLVHWNPKYNTFKEALKQRDGIAVIGIFLKIGHENGEFQIFLDALDKIKTKGKEAPFTKFDPSCLFPACRDYWTYQGSFTTPPCEECIVWLLLKEPMTVSSDQMAKLRSLLSSAENEPPVPLVSNWRPPQPINNRVVRASFK | 33.3 | 200000 | –

Reference: patent US11459578B2, “Carbon fixation systems in plants and algae” (NMC, INC., priority 2014, dated 2022)
